Results as given in patent US7279548B2, “Identification and isolation of novel polypeptides having WW domains and methods of using same” (Cytogen Corporation, priority 1996, dated 2007).
No end group written: not given here.

Key:
[1] = target: T1, WW domains of WWP1 expressed as GST fusion proteins (Homo sapiens, UniProt Q9H0M0); test: ELISA based cross affinity mapping, WW domains of WWP1; type: binding; details: GST fusion protein
T1 construct: twelve individual novel WW domains of WWP1, WWP2, WWP3 and WWP4 which were expressed as GST fusion proteins; made in house
Method: (§1) The 16 day mouse embryo cDNA expression library was diluted 1:1000 in SM solution (100 mM NaCl, 8 mM MgSOv4, 50 mM Tris HCl pH 7.5, 0.01% gelatin). To a sterile test tube, 2 μl of diluted mouse embryo library, 100 μl of 10 mM CaCl2, 100 μl of 10 mM MgCl2 and 100 μl of BL21(DE3)pLysE bacterial cells (grown overnight) were added and incubated for 30 minutes at 37° C. The contents of the tube were mixed with 3 ml of 0.6% top agarose, containing […] chloramphenicol, and poured onto a 2xYT plate (90 mm diameter). For a large primary screen, 10–20 plates were prepared with 3×10^4 pfu per plate. After 6 hours incubation at 37° C., a nitrocellulose filter soaked in 10 mM isopropyl-β-D-thiogalactopyranoside (IPTG) was overlaid on each plate and incubated 3–6 hours at 37° C. Before the filters were removed from the plates, they were marked asymmetrically with India ink in a 18 gauge syringe needle. The plates were stored at 4° C. until ready for the secondary screen. The filters were washed with PBS (137 mM NaCl, 2.7 mM KCl, 4.3 mM Na2HPO4, 1.4 mM KH2PO4)-0.05% Triton X-100 three times at room temperature, 15 minutes each wash, and then placed in a plastic bag containing non-specific blocking solution (PBS-2% BSA) for one hour. In the meantime, 1 ml of 1 mM biotinylated peptide in PBS-0.1% Tween 20 was added to 20 ml of 1 mg/ml streptavidin-alkaline phosphatase (SA-AP) in PBS-0.1% Tween 20 and incubated at 4° C. for 30 minutes. […] Excess biotin-binding sites would then be blocked by addition of 500 pmol biotin. […] Ten μl of 0.1 mM biotin would then be added, and the solution incubated for an additional 15 min.
(§2) To determine the ligand preferences of the novel WW omain-containing clones described in Sections 6.1 and 6.1.1, as well as addressing the issue of whether peptides containing PPPPY (SEQ ID NO:3)-like motifs derived from a variety of proteins could also serve as recognition units and bind to these clones, a cross affinity mapping experiment was performed (FIGS. 15A–D). The peptides shown in FIGS. 15A–D were synthesized, biotinylated, complexed with streptavidin-alkaline phosphatase, and tested in an ELISA based assay for their ability to bind to the twelve individual novel WW domains of WWP1, WWP2, WWP3 and WWP4 which were expressed as GST fusion proteins. The ELISA based cross-affinity experiments were performed essentially as described by Sparks et al. (1996, Proc. Natl. Acad. Sci. 93:1540–1544) with the following modifications. Briefly, microtiter wells were coated with 1–5 μg of fusion protein in 100 mM NaHCO3, blocked with SuperBlock TBS (Pierce) and washed four times with PBS, 0.05% Tween 20. Specific peptide-streptavidin/alkaline phosphatase complexes were added as above and unbound complexes washed five times with PBS, 0.05% Tween 20. Following addition of PNP substrate (p-nitrophenyl phosphate, Kirkegard & Perry Labs), peptide binding was quantitated after 30 min. at O.D. 405 nm. Relative binding measurements from three independent determinations were assigned to a scale as follows: O.D. units 0–0.5=(−), 0.5–1.0=(+), 1.0–2.0=(++), 2.0–3.0=(+++), >3.0=(++++). Peptide binding to human Fyn and Lyn SH3 and SH2 domains was assessed by a filter binding assay (see Section 6.1 and Sparks et al., 1996, Proc. Natl. Acad. Sci 93:1540–1544). Peptide sequences used in cross-affinity experiments correspond to segments of the following genes: RasGap (Database accession # P20936), AP-2 (P05549), p53BP-2 (U09582), IL-6Rα (P22272), voltage-gated chloride channel CLCN5 (X91906), IL-2Rγ (D111086), RSV (D10652), HTLV-1 (D13784), β-dystroglycan (L19711), Formin (X53599), amiloride-sensitive epithelial Na^+ channel ENaCα (P37089), ENaCβ (X87159) and ENaCγ (X87160), muscarinic acetylcholine receptor M4 AChR (P08173), and c-Abl (P00522). Src and Crk SH3 binding peptide sequences were derived from a phage display random peptide library screen (Section 6.1 and Sparks et al., 1996, Proc. Natl. Acad. Sci. 93:1540–1544).

[2] = tested on: twelve individual novel WW domains of WWP1, WWP2, WWP3 and WWP4; test: ELISA based cross affinity mapping, whole panel of novel WW domains; type: binding, human; details: biotinylated peptide-streptavidin/alkaline phosphatase complex, GST fusion proteins
Method: as §1, §2

[3] = target: T2, WW domains of WWP2 expressed as GST fusion proteins (Homo sapiens, UniProt O00308); test: ELISA based cross affinity mapping, WW domains of WWP2; type: binding
T2 construct: twelve individual novel WW domains of WWP1, WWP2, WWP3 and WWP4 which were expressed as GST fusion proteins; made in house
Method: as §1, §2

[4] = tested on: WW domains of WWP4 expressed as GST fusion proteins; test: ELISA based cross affinity mapping, WW domains of WWP4; type: binding, human; details: biotinylated peptide-streptavidin/alkaline phosphatase complex; GST fusion proteins; ELISA
Method: as §1, §2

[5] = tested on: WW domains of WWP1 expressed as GST fusion proteins; test: ELISA based cross affinity mapping, WW domains of WWP1; type: binding, human; details: biotinylated peptide-streptavidin/alkaline phosphatase complex; GST fusion proteins; ELISA
Method: as §1, §2

[6] = tested on: WW domains of WWP2 expressed as GST fusion proteins; test: ELISA based cross affinity mapping, WW domains of WWP2; type: binding, human; details: biotinylated peptide-streptavidin/alkaline phosphatase complex; GST fusion proteins; ELISA
Method: as §1, §2

[7] = target: T3, WW domains of WWP4 expressed as GST fusion proteins (Homo sapiens, UniProt Q96PU5); test: ELISA based cross affinity mapping, WW domains of WWP4; type: binding; details: GST fusion protein
T3 construct: twelve individual novel WW domains of WWP1, WWP2, WWP3 and WWP4 which were expressed as GST fusion proteins; made in house
Method: as §1, §2

[8] = target: T4, WWP3 WW domain expressed as GST fusion protein (Homo sapiens, UniProt Q96QZ7); test: ELISA based cross affinity mapping, WWP3 WW domain; type: binding; details: biotinylated peptide-streptavidin/alkaline phosphatase complex
T4 construct: made in house
Method: The 16 day mouse embryo cDNA expression library was diluted 1:1000 in SM solution (100 mM NaCl, 8 mM MgSOv4, 50 mM Tris HCl pH 7.5, 0.01% gelatin). To a sterile test tube, 2 μl of diluted mouse embryo library, 100 μl of 10 mM CaCl2, 100 μl of 10 mM MgCl2 and 100 μl of BL21(DE3)pLysE bacterial cells (grown overnight) were added and incubated for 30 minutes at 37° C. The contents of the tube were mixed with 3 ml of 0.6% top agarose, containing […] chloramphenicol, and poured onto a 2xYT plate (90 mm diameter). For a large primary screen, 10–20 plates were prepared with 3×10^4 pfu per plate. After 6 hours incubation at 37° C., a nitrocellulose filter soaked in 10 mM isopropyl-β-D-thiogalactopyranoside (IPTG) was overlaid on each plate and incubated 3–6 hours at 37° C. Before the filters were removed from the plates, they were marked asymmetrically with India ink in a 18 gauge syringe needle. The plates were stored at 4° C. until ready for the secondary screen. The filters were washed with PBS (137 mM NaCl, 2.7 mM KCl, 4.3 mM Na2HPO4, 1.4 mM KH2PO4)-0.05% Triton X-100 three times at room temperature, 15 minutes each wash, and then placed in a plastic bag containing non-specific blocking solution (PBS-2% BSA) for one hour. In the meantime, 1 ml of 1 mM biotinylated peptide in PBS-0.1% Tween 20 was added to 20 ml of 1 mg/ml streptavidin-alkaline phosphatase (SA-AP) in PBS-0.1% Tween 20 and incubated at 4° C. for 30 minutes. As an alternative method of forming multivalent complexes, 50 pmol biotinylated peptide could have been incubated with 2 μg SA-AP (for a biotin:biotin-binding site ratio of 1:1). Excess biotin-binding sites would then be blocked by addition of 500 pmol biotin. As a further alternative, 31.2 μl of 1 mg/ml SA-AP could have been incubated with 15 μl of 0.1 mM biotinylated peptide for 30 min at 4° C. Ten μl of 0.1 mM biotin would then be added, and the solution incubated for an additional 15 min.
as §2, with “Peptide sequences used in cross-affinity experiments correspond to segments of the following genes: RasGap (Database accession # P20936), AP-2 (P05549), p53BP-2 (U09582), IL-6Rα (P22272), voltage-gated chloride channel CLCN5 (X91906), IL-2Rγ (D111086), RSV (D10652), HTLV-1 (D13784), β-dystroglycan (L19711), Formin (X53599), amiloride-sensitive epithelial Na^+ channel ENaCα (P37089), ENaCβ (X87159) and ENaCγ (X87160), muscarinic acetylcholine receptor M4 AChR (P08173), and c-Abl (P00522). Src and Crk SH3 binding peptide sequences were derived from a phage display random peptide library screen (Section 6.1 and Sparks et al., 1996, Proc. Natl. Acad. Sci. 93:1540–1544).” left out

T4 sequence (Q96QZ7 300-337 limits assumed): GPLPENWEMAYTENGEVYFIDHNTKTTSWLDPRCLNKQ

Substance | binding to individual WW domain WWP1.4 [1] | binding to individual WW domain WWP2.4 ([3]; GST fusion protein) | binding to WW domains of WWP4 [4] | binding to WW domains of WWP1 [5] | binding to WW domains of WWP2 [6] | other results
CLCN5: peptide from the voltage-gated renal chloride channel CLCN5 (X91906) (SPPLPPYTPP) | appreciable binding | appreciable binding |  |  |  | binding to the novel WW domains (WWP1, WWP2, WWP3, WWP4 panel) [2]: bound to WW domains from one or more of the four novel clones
WBP-1-Pro2: alanine substitution variant of WBP-1 at the second proline residue of the PPPPY motif (SGSGPGTPAPPYTVGPGY) |  |  | loss of binding activity |  |  | binding to individual WW domain WWP1.2 [1]: did not abolish binding; binding to individual WW domain WWP2.3 ([3]; GST fusion protein): did not abolish binding
bWW059: biotinylated peptide corresponding to the wild-type PPPPY-like motif in the HECT domain of WWP4 (NRLDLPPYETFED; also: biotinylated, site not given here) | binds | binds | bind to individual WW domains | bind to individual WW domains | bind to individual WW domains | binding to individual WW domain WWP1.1 [1]: binds; binding to individual WW domain WWP2.1 ([3]; GST fusion protein): binds; binding to individual WW domain WWP2.2 ([3]; GST fusion protein): binds; O.D. after 30 minutes at 405 nm ([3]; individual WW domain WW2.4, GST fusion protein): 3.0; binding to individual WW domain WWP4.1 [7]: binds; binding to individual WW domain WWP4.2 [7]: binds; binding to individual WW domain WWP4.3 [7]: binds
biotin - PGTPPPNYDSLRL [ENaCβ] |  |  | positive interaction | positive interaction | positive interaction | binding to WWP3 WW domain [8]: positive interaction
